Laboratory results as given in patent US20160083465A1 (AVEO PHARMACEUTICALS, published 2016).
Residue numbers refer to the chain shown, from its start.

T1: mouse IgG1 Fc-mature human GDF15 fusion protein (mFc-rhGDF15) (mouse; human)
T1 construct: Made in CHOK1SV cells, purified by Protein A and size exclusion; also called mouse Fc fused to human GDF15
T1 chain: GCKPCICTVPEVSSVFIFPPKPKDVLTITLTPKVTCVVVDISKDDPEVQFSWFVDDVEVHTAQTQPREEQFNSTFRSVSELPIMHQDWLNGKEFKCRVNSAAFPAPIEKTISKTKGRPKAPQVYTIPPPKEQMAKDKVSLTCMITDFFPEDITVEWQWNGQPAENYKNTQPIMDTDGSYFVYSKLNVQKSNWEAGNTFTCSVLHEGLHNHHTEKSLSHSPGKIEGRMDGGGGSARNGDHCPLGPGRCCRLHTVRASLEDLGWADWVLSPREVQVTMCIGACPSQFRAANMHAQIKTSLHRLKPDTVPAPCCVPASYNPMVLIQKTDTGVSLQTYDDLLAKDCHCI

B1: Hu01G06-1 (antibody, human IgG1, kappa)
heavy: not shown
light: DIQMTQSPASLSASVGETVTITCRTSENLHNYLAWYQQKQGKSPQLLVYDAKTLADGVPSRFSGSGSGTQYSLKINSLQPEDFGSYYCQHFWSSPYTFGGGTKLEIKRTVAAPSVFIFPPSDEQLKSGTASVVCLLNNFYPREAKVQWKVDNALQSGNSQESVTEQDSKDSTYSLSSTLTLSKADYEKHKVYACEVTHQGLSSPVTKSFNRGEC
notes: Mouse variable regions, human IgG1 and kappa constant regions; also called Chimeric 01G06; chimeric 01G06 (Hu01G06-1)
B2: Hu01G06-46 (antibody, human IgG1, kappa)
heavy: not shown
light: DIQMTQSPSSLSASVGDRVTITCRTSENLHNYLAWYQQKPGKSPKLLVYDAKTLADGVPSRFSGSGSGTDYTLTISSLQPEDFATYYCQHFWSSPYTFGQGTKLEIKRTVAAPSVFIFPPSDEQLKSGTASVVCLLNNFYPREAKVQWKVDNALQSGNSQESVTEQDSKDSTYSLSSTLTLSKADYEKHKVYACEVTHQGLSSPVTKSFNRGEC
notes: Humanized, human IgG1 kappa
B3: Hu01G06-52 (antibody, human IgG1, kappa)
heavy: not shown
light: B2 light
notes: Humanized, human IgG1 kappa
B4: Hu06C11-1 (antibody, human IgG1, kappa)
heavy: not shown
light: DIVMTQSQKFMSTSVGDRVSVTCKASQNVGTNVAWFQQKPGQSPKALIYSASYRYSGVPDRFTGSGSGTDFILTISNVQSEDLAEYFCQQYNNYPLTFGAGTKLELKRTVAAPSVFIFPPSDEQLKSGTASVVCLLNNFYPREAKVQWKVDNALQSGNSQESVTEQDSKDSTYSLSSTLTLSKADYEKHKVYACEVTHQGLSSPVTKSFNRGEC
notes: Mouse variable regions, human IgG1 and kappa constant regions; also called Chimeric 06C11
B5: Hu06C11-27 (antibody, human IgG1, kappa)
heavy: not shown
light: DIQMTQSPSSLSASVGDRVTITCKASQNVGTNVAWFQQKPGKAPKSLIYSASYRYSGVPSRFSGSGSGTDFTLTISSLQPEDFATYYCQQYNNYPLTFGQGTKLEIKRTVAAPSVFIFPPSDEQLKSGTASVVCLLNNFYPREAKVQWKVDNALQSGNSQESVTEQDSKDSTYSLSSTLTLSKADYEKHKVYACEVTHQGLSSPVTKSFNRGEC
notes: Humanized, human IgG1 kappa
B6: Hu14F11-39 (antibody, human IgG1, kappa)
heavy: not shown
light: B5 light with A43S, S46A, A51P, Y87F, N93S, L96H
notes: Humanized, human IgG1 kappa
B7: Hu06C11-30 (antibody, human IgG1, kappa)
heavy: not shown
light: B5 light
notes: Humanized, human IgG1 kappa
B8: Hu14F11-47 (antibody, human IgG1, kappa)
heavy: not shown
light: B5 light with A43S, S46A, A51P, Y87F, N93S, L96H
notes: Humanized, human IgG1 kappa

Target: T1, mouse IgG1 Fc-mature human GDF15 fusion …
Experiment: SPR Biacore T100, 37 C, antibody from supernatant captured by anti-human IgG Fc, antigen in solution

Kd [nM] | koff [s⁻¹] | kon [M⁻¹ s⁻¹] | Binder
0.14 | 0.00071 | 4.9e+06 | B1
0.1 | 0.00043 | 4.1e+06 | B2
0.089 | 0.00044 | 5e+06 | B3

Target: T1, mouse IgG1 Fc-mature human GDF15 fusion …
Experiment: SPR Biacore T100, 37 C, purified antibody captured by anti-human IgG Fc, antigen in solution
Protocol: Goat anti-human IgGs (Fc fragment specific, Jackson ImmunoResearch, West Grove, Pa.) were immobilized on carboxymethylated dextran CM4 sensor chips by amine coupling, according to a standard protocol. Analyses were performed at 37° C. using PBS containing 0.05% surfactant P20 as running buffer. The antibodies were captured in individual flow cells at a flow rate of 10 μL/minute. Injection time was varied for each antibody to yield an Rmax between 30 and 60 RU. […] The dissociation phase was monitored for up to 1200 seconds. The surface was then regenerated with two 60-second injections of 10 mM Glycine-HCl, pH 2.25, at a flow rate of 30 μL/minute.
Kinetic parameters were determined using the kinetic function of the BIAevaluation software (GE Healthcare) with double reference subtraction.

Kd [nM] | koff [s⁻¹] | kon [M⁻¹ s⁻¹] | Binder
0.16 | 0.00064 | 4.2e+06 | B1
0.18 | 0.00084 | 5.3e+06 | B4
0.11 | 0.00038 | 3.6e+06 | B2
0.099 | 0.00036 | 3.6e+06 | B3
0.18 | 0.00082 | 4.7e+06 | B5
0.066 | 0.00019 | 3e+06 | B6
0.18 | 0.00087 | 4.8e+06 | B7
0.065 | 0.00018 | 3.3e+06 | B8
